Reference: PMC3877283, “Development of Novel Radiogallium-Labeled Bone Imaging Agents Using Oligo-Aspartic Acid Peptides as Carriers” (PLoS ONE, 2013)
Like-named read-outs stand apart in the source and are kept apart here. Marks after values point to notes of the source that are not given here. Peptide text beside a SMILES is read from it. * marks the point of attachment. DOTA = O=C(O)CN1CCN(CC(=O)O)CCN(CC(=O)*)CCN(CC(=O)O)CC1

Test: Biodistribution experiments in mice with pretreatment of alendronate (20 mg/kg)
Type: in vivo, ddY mice
Settings: for Radioactivity in Bone (Femur): Bone (complete left femur); for Radioactivity in Stomach: Stomach (footnote b)
Protocol: Experiments with animals were conducted in strict accordance with the Guidelines for the Care and Use of Laboratory Animals of Kanazawa University. The animal experimental protocols used were approved by the Committee on Animal Experimentation of Kanazawa University (Permit Number: AP-132633). Biodistribution experiments were performed after an intravenous administration of each diluted tracer solution (37 kBq/100 µL) to 6-week-old male ddY mice (27–32 g, Japan SLC, Inc., Hamamatsu, Japan). To investigate the effect of an excess amount of bisphosphonate on biodistribution, alendronate (20 mg/kg) was intravenously administered to mice 1 minute before the intravenous injection of ^67Ga-DOTA-(Asp)14 or ^67Ga-DOTA-Bn-SCN-HBP. Four to six mice each were sacrificed by decapitation at 10, 60, and 180 minutes post-injection. Tissues of interest were removed and weighed. Complete left femurs were isolated as representative bone samples, radioactivity was determined using an auto well gamma counter, and counts were corrected for background radiation and physical decay during counting.

[1] = 10 min after i.v. administration, alendronate 20 mg/kg i.v. 1 minute before, male ddY mice, mean (SD) for five or six animals
[2] = 60 min (1 h) after i.v. administration, alendronate 20 mg/kg i.v. 1 minute before, male ddY mice, mean (SD) for five or six animals
[3] = 180 min (3 h) after i.v. administration, alendronate 20 mg/kg i.v. 1 minute before, male ddY mice, mean (SD) for five or six animals

O=C(O)C[C@H](NC(=O)[C@H](CC(=O)O)NC(=O)[C@H](CC(=O)O)NC(=O)[C@H](CC(=O)O)NC(=O)[C@H](CC(=O)O)NC(=O)[C@H](CC(=O)O)NC(=O)[C@H](CC(=O)O)NC(=O)[C@H](CC(=O)O)NC(=O)[C@H](CC(=O)O)NC(=O)[C@H](CC(=O)O)NC(=O)[C@H](CC(=O)O)NC(=O)[C@H](CC(=O)O)NC(=O)[C@H](CC(=O)O)NC(=O)[C@H](CC(=O)O)NC(=O)CN1CCN(CC(=O)O)CCN(CC(=O)O)CCN(CC(=O)O)CC1)C(=O)O [67Ga-DOTA-(Asp)14, metal not drawn] ({DOTA}-DDDDDDDDDDDDDD-OH)
F/B ratio (Femur:blood ratio) [1]: 4.50 (0.63) ^**
F/B ratio (Femur:blood ratio) [2]: 52.96 (17.28) ^**
F/B ratio (Femur:blood ratio) [3]: 229.73 (67.08) ^**
Radioactivity in Blood (Blood, 60 min (1 h) after i.v. administration, alendronate 20 mg/kg i.v. 1 minute before, male ddY mice, mean (SD) for five or six animals): 0.23 (0.05) ^** % injected dose
Radioactivity in Blood (Blood, 180 min (3 h) after i.v. administration, alendronate 20 mg/kg i.v. 1 minute before, male ddY mice, mean (SD) for five or six animals): 0.06 (0.02) ^** % injected dose
Radioactivity in Bone (Femur) [1]: 8.59 (0.55) ^** % injected dose
Radioactivity in Bone (Femur) [2]: 11.81 (1.95) % injected dose
Radioactivity in Bone (Femur) [3]: 12.88 (2.30) % injected dose
Radioactivity in Brain [1]: 0.05 (0.01) % injected dose
Radioactivity in Brain [2]: 0.02 (0.00) ^* % injected dose
Radioactivity in Brain [3]: 0.01 (0.00) % injected dose
Radioactivity in Heart (Heart, 60 min (1 h) after i.v. administration, alendronate 20 mg/kg i.v. 1 minute before, male ddY mice, mean (SD) for five or six animals): 0.24 (0.08) ^** % injected dose
Radioactivity in Heart (Heart, 180 min (3 h) after i.v. administration, alendronate 20 mg/kg i.v. 1 minute before, male ddY mice, mean (SD) for five or six animals): 0.15 (0.07) ^** % injected dose
Radioactivity in Kidney (Kidney, 60 min (1 h) after i.v. administration, alendronate 20 mg/kg i.v. 1 minute before, male ddY mice, mean (SD) for five or six animals): 3.28 (0.82) ^** % injected dose
Radioactivity in Kidney (Kidney, 180 min (3 h) after i.v. administration, alendronate 20 mg/kg i.v. 1 minute before, male ddY mice, mean (SD) for five or six animals): 3.34 (0.92) ^** % injected dose
Radioactivity in Large-intestine [1]: 0.40 (0.08) ^* % injected dose
Radioactivity in Large-intestine [2]: 0.08 (0.01) ^** % injected dose
Radioactivity in Large-intestine [3]: 0.33 (0.07) ^** % injected dose
Radioactivity in Liver (Liver, 60 min (1 h) after i.v. administration, alendronate 20 mg/kg i.v. 1 minute before, male ddY mice, mean (SD) for five or six animals): 1.39 (0.29) ^** % injected dose
Radioactivity in Liver (Liver, 180 min (3 h) after i.v. administration, alendronate 20 mg/kg i.v. 1 minute before, male ddY mice, mean (SD) for five or six animals): 1.27 (0.72) ^** % injected dose
Radioactivity in Lung (Lung, 180 min (3 h) after i.v. administration, alendronate 20 mg/kg i.v. 1 minute before, male ddY mice, mean (SD) for five or six animals): 2.49 (1.78) ^* % injected dose
Radioactivity in Muscle (Muscle, 60 min (1 h) after i.v. administration, alendronate 20 mg/kg i.v. 1 minute before, male ddY mice, mean (SD) for five or six animals): 0.11 (0.07) % injected dose
Radioactivity in Muscle (Muscle, 180 min (3 h) after i.v. administration, alendronate 20 mg/kg i.v. 1 minute before, male ddY mice, mean (SD) for five or six animals): 0.05 (0.02) % injected dose
Radioactivity in Pancreas [1]: 0.72 (0.12) ^** % injected dose
Radioactivity in Pancreas [2]: 0.15 (0.02) ^** % injected dose
Radioactivity in Pancreas [3]: 0.12 (0.07) ^* % injected dose
Radioactivity in Small-intestine [1]: 0.53 (0.09) ^* % injected dose
Radioactivity in Small-intestine [2]: 0.22 (0.05) ^** % injected dose
Radioactivity in Small-intestine [3]: 0.29 (0.12) ^** % injected dose
Radioactivity in Spleen (Spleen, 60 min (1 h) after i.v. administration, alendronate 20 mg/kg i.v. 1 minute before, male ddY mice, mean (SD) for five or six animals): 1.03 (0.35) ^** % injected dose
Radioactivity in Spleen (Spleen, 180 min (3 h) after i.v. administration, alendronate 20 mg/kg i.v. 1 minute before, male ddY mice, mean (SD) for five or six animals): 0.89 (0.59) ^* % injected dose
Radioactivity in Stomach [1]: 0.36 (0.09) ^* % injected dose
Radioactivity in Stomach [2]: 0.15 (0.12) % injected dose
Radioactivity in Stomach [3]: 0.11 (0.04) ^** % injected dose
effect of alendronate pretreatment on accumulation in bone (in words) (alendronate 20 mg/kg i.v. 1 minute before tracer, mice): comparatively little effect
tissue uptake dose at 10 min (male, ddY, mouse, in vivo, iv, total radioactivity, Blood, 10 min after i.v. administration, alendronate 20 mg/kg i.v. 1 minute before, male ddY mice, mean (SD) for five or six animals, read-out: Radioactivity in Blood): 1.94 %ID
tissue uptake dose at 10 min (male, ddY, mouse, in vivo, iv, total radioactivity, Heart, 10 min after i.v. administration, alendronate 20 mg/kg i.v. 1 minute before, male ddY mice, mean (SD) for five or six animals, read-out: Radioactivity in Heart): 0.88 %ID
tissue uptake dose at 10 min (male, ddY, mouse, in vivo, iv, total radioactivity, Kidney, 10 min after i.v. administration, alendronate 20 mg/kg i.v. 1 minute before, male ddY mice, mean (SD) for five or six animals, read-out: Radioactivity in Kidney): 16.7 %ID
tissue uptake dose at 10 min (male, ddY, mouse, in vivo, iv, total radioactivity, Liver, 10 min after i.v. administration, alendronate 20 mg/kg i.v. 1 minute before, male ddY mice, mean (SD) for five or six animals, read-out: Radioactivity in Liver): 2.2 %ID
tissue uptake dose at 10 min (male, ddY, mouse, in vivo, iv, total radioactivity, Lung, 10 min after i.v. administration, alendronate 20 mg/kg i.v. 1 minute before, male ddY mice, mean (SD) for five or six animals, read-out: Radioactivity in Lung): 5.86 %ID
tissue uptake dose at 1 h (male, ddY, mouse, in vivo, iv, total radioactivity, Lung, 60 min (1 h) after i.v. administration, alendronate 20 mg/kg i.v. 1 minute before, male ddY mice, mean (SD) for five or six animals): 4.07 %ID
tissue uptake dose at 10 min (male, ddY, mouse, in vivo, iv, total radioactivity, Muscle, 10 min after i.v. administration, alendronate 20 mg/kg i.v. 1 minute before, male ddY mice, mean (SD) for five or six animals, read-out: Radioactivity in Muscle): 0.53 %ID
tissue uptake dose at 10 min (male, ddY, mouse, in vivo, iv, total radioactivity, Spleen, 10 min after i.v. administration, alendronate 20 mg/kg i.v. 1 minute before, male ddY mice, mean (SD) for five or six animals, read-out: Radioactivity in Spleen): 1.86 %ID
